Experimental data reported in US20200207873A1 (INSERM INSTITUT NATIONAL DE LA SANT ET DE LA RECHERCHE M …, published 2020).

Target: T1, full-length His-tagged pUL89 (wild-type) (human cytomegalovirus, AD169 genotype, UniProt P16732 1-674)
T1 construct: mature; It was expressed from pCI-neo His-pUL89 in HEK293 cells and purified on Ni resin; also called His-pUL89; 6xHis-pUL89; not shown: 6xHis tag
T1 sequence: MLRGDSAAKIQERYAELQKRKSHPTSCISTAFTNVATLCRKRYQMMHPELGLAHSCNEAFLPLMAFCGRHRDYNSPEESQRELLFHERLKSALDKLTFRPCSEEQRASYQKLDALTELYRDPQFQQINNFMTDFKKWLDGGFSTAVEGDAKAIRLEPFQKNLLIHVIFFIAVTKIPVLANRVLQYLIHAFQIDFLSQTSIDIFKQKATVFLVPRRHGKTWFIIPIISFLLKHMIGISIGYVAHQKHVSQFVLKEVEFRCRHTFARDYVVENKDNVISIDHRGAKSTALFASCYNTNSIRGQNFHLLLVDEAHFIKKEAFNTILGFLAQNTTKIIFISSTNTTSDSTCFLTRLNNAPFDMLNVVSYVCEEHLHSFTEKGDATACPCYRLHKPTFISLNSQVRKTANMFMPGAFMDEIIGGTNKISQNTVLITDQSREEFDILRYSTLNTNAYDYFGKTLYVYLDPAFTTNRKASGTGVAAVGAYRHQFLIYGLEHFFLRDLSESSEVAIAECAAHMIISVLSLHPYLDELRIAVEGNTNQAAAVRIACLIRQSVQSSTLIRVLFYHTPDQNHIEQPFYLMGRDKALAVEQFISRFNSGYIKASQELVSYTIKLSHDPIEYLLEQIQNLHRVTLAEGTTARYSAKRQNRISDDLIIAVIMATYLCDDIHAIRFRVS
Experiment: Alpha proximity assay, purified proteins; negative controls are each protein alone

B1: full-length amino-terminal 3xHA-tagged pUL56 (wild-type) (other)
chain: MEMNLLQKLCVVCSKCNEYAMELECLKYCDPNVLLAESTPFKRNAAAIVYLYRKIYPEVVAQNRTQSSLLTLYLEMLLKALHEDTALLDRALMAYSRQPDRAAFYRTVLRLDRCDRHHTVELQFTDNVRFSVSLATLNDIERFLCKMNYVYGILAPEAGLEVCAQLLELLRRLCGISPVARQEVYVEGTTCAQCYEELTIIPNQGRSLNKRLQGLLCNHIAVHRPSSQSDVNIQTVEQDLLDLTTRIPHLAGVLSALKSLFSSSSAYHSYIQEAEEALREYNLFTDIPERIYSLSDFTYWSRTSEVIVKRVGITIQQLNVYHQLCRALMNGISRHLYGEDVEDIFVLGEKALDGEERMFVGSVFAAPNRIIDLITSLSIQAFEDNPVFNKLHESNEMYTKIKHILEEIRRPLPDGTGGDGPEGEAIHLRGREAMSGTGTTLMTASNSSNSSTHSQRNNGGGGRARGGGKKAVGGGANGQDGDGSENGLRVRNCDEHEALDLVDARSRIHNVTREVNVRKRAYLQKVSEVGYGKVIRCIKTQERLTSKLIDVNLVGPLCLDFISKLMNGFLYRSQYHQDQDVVDVGDQFTYDEHLYVVNNLIHKSLPVESLPLLGQQIYELCNGPLFTHCTDRYPLSHNVDMAYACDNAGVLPHVKDDLVKCAEGTVYPSEWMVVKYMGFFNFSDCQDLNVLQKEMWMHVRELVLSVALYNETFGKQLSIACLRDELHPDRDVILTYNKEWPLLLRHEGNLYKSKDLYLLLYRHLSRPDESGDVPTAPVAKPSTLTAAAAVSGAFREPDRPWLPSPYPSSSTAGVSRRVRATRKRPRRASSLLDLARDEHGIQDLVPGSLR
notes: also called 3xHA-pUL56; HA-pUL56; not shown: amino-terminal 3xHA tag
  fold of Alpha signal over negative controls: > 2 fold
